The source of these data is US20120184488A1, “INSULIN ANALOGUES OF ENHANCED RECEPTOR-BINDING SPECIFICITY” (CASE WESTERN RESERVE UNIVERSITY, priority 2009, published 2012).

In experiment [1] the target is insulin receptor, isoform B (human) (UniProt P06213). Description: competitive displacement, antibody-capture microtiter plate, IR isoform B.
In the next experiment the target is IR (Homo sapiens, UniProt P06213). As to conditions: relative to human insulin; cited from earlier work.
For experiment [2], the target named is insulin receptor, isoform B (human) (UniProt P06213). Nature of the experiment: competitive displacement of 125I-insulin, antibody-capture microtiter plate, IR isoform B.
The target of experiment [3] is Type I insulin-like growth factor receptor (UniProt P08069). Nature of the experiment: competitive displacement of 125I-IGF-1, antibody-capture microtiter plate, IGFR.

Ala^A4-His^A8-DKP-insulin (ligand), sequence (chain): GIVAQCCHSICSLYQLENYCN
Ala^A4-His^A8-DKP-insulin (ligand), sequence (chain): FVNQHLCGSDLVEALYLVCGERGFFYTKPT
His^A4-His^A8-His^B1-insulin (ligand), sequence (chain): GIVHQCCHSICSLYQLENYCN
His^A4-His^A8-His^B1-insulin (ligand), sequence (chain): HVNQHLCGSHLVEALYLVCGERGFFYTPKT

On to His^A4-His^A8-His^B1-insulin (ligand), for which the relative affinity for IR (percent of human insulin) in experiment [1] is 125%.
Take insulin Detemir®: the “affinity for IR / receptor binding” value at IR was “decreased affinity”.
For the substance Ala^A4-His^A8-DKP-insulin (ligand), the relative affinity for IR (percent of human insulin) in experiment [1] came out at 384%.
Dab^A8-insulin (ligand) came in with a relative affinity for IR (percent of human insulin) in experiment [2] of 91%. Also, in experiment [3], the relative affinity for IGFR (percent of IGF-I) came to 0.13%.
